In the nanobody polyreactivity screen of Harvey et al. (2022):

Experiment: yeast display, Sf9 membrane polyspecificity reagent, FACS + sequencing; frameworks hold sequencing errors
Summary of the method: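 A nanobody's polyreactivity label depends on the gate it was sorted from. Yeast display cells were stained with 10% biotinylated, detergent-solubilized Sf9 membrane reagent for 1 hour at 4 °C, enriched on streptavidin microbeads and sorted by FACS. The low and high (top ~1%) gates were set on anti-HA fluorescence for expression and streptavidin fluorescence for reagent binding.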

Row | Sequence | polyreactivity (PSR sort gate)
1 | QVQLVESGGGLVQAGGSLRLSCAASGRIFYVNAMGWYRQAPGKERELVATIRRGGDTNYADSVKGRFTISRDNAKNTVYLQMNSLKPEDTAVYYCASKAYQSSYQRYYWGQGTQVTVSS | high polyreactivity
2 | QVQLVESGGGLVQAGGSLRLSCAASGSTFQSNAMGWYRQAPGKERELVASITDSGGRTYYADSVKGRFTSSRDNAKNTVYLQMNSLKPEDTAVYYCAAVSLWWSDYYFVEYDYWGQGTQVTVSS | high polyreactivity
3 | QVQLVESGGGLVQAGGSLRLSCAASGRIFVYNTMGWYRQAPGKERELVAAIDWSGGSKYYADSVKGRFTISRDNAKNTVYLQMNSLKPEDTAVYYCNADSLIGMDYWGQGTQVTVSS | high polyreactivity
4 | QVQLVESGGGLVQAGGSLRLSCDASGYTFRRYAMGWYIQAPGKEREMVAAITNSGGSTYYADSVKGRFTISRDNAKNTVYLQMNSLKPEDTAVYYCVALRSAGAYDYWGQGTQVTVSS | low polyreactivity
5 | QVQLVDSGGGLVQAGGSLRLICAASGSTFARNTMGWYRQAPGKETELVAVISRGDSTYYADSVKGRFTISRDNAKNSVYLQMNSLKPEDTAVNYCIAYLRYAYPSKMDYWGQGTQVTVSS | low polyreactivity
6 | QVQLVESGGGIVQAGGSHRLSCAASGRIFGVNAMGWYRQATGKERELVAAISVSGDSTYYADSVKGRFTISRDNAKNTVYLQMNSLKPEDTAVYYCNAGYTFVPADLTDEYYWGQGTQVTVSS | low polyreactivity
7 | QVQLVESRGGLVQAGGSLPLSCAASGSIFDRYAMGWYRQAPGKERELVAAISRSGGSTYYADSVKGRFTISRDNAKNTVYLQMNSLKPEDTAVYYCAARARSLYDYWGQGTQVTVSS | high polyreactivity
8 | QVQLVESGGGLVQAGGSLRLSCAASGFTFNFYTMGWYRQAPGKERELVAAITWSGGSTYYADSVKGRFTISRDNAKNTVYLQLNSLKPEDTAVYYCAATQQSRDRRFNYWGQGTQVTVSS | high polyreactivity
9 | QVQLVESGGGLVQAGGSHRLSCAASGRTFRYNAMGWYRQAPGKERELVAAISGRGSSTYYADSVKGRFTISRDNAMNTVYLQMNSLKPEETAVYYCAALPASVRRPGWHDYWGQGTQVTVSS | high polyreactivity
10 | QVQLVESGGGLVQAGGSLRLSCAASGRTFFVNTMGWSRQAPGKERELVAAISDSGGSTYADSVKGRFTISRDNAKNTVNLQKNSLKPEDTAVYYCAARRRYPQRFGFDYWGQGTQVTVSS | low polyreactivity
11 | QVQLVESGGGLVQAGGSLRLSCAASGRTFRYYAMGWYRPAPGKERELVAAITISSGSTYYADSVKGRFTISRDNAKNTVYLQMNSLKPEDTAVYYCAATRRYHFDYWGQGTQVTVSS | high polyreactivity
12 | QVQLVESGGGLVQAGGSLRLSCAASGSTFSCNSMGWYRQAPGKERELVAAITSGGSTNYADSVKGRFTISRDNAKNTVFLQMNSLKPEDTAVYYCAKRYGYRRYYTASDYWGQGTQVTVSS | low polyreactivity
13 | QVQLVESGGGLVQAGGSLRLSCAASGLTFYWNAMGWYRQAPGKERELVASISQSSGNTYYADSVKGRFSISRDNAKNTVYLQMNSLKPEDTAVYYCAARNRPSLNRYYYWGQGTQVNVSS | low polyreactivity
14 | QVQLVESGGGLVQAGGSLRLSCAASGFTFLVYAMGWYRQAPGKERELVAAITWSGDSTYYADSVKGRFTISRDNAKNTVYLQMNSLKPEDTAVYYCAAAYRYGTLYYYWGQGTQVTVSS | low polyreactivity
15 | QVQIVESGGVLVQAGGSLRLSCAASGLTFVQYDMGWYRHAPGKERELVADISGSAGDTYYADSVKGRFTISRDNAKKTVYLQMNSLKPEDTAVYYCNAYGAEYLQYGWRDYWGQGTQLTVSS | low polyreactivity
16 | QVQLVESGGGLVQAGGSLRLSCAASGLILHKYAMGWYRQAPGKERELVASINSGANTNYADSVKGRFTISRDNAKNTVYLQMNSLKPEDTAVYYCNASPFTVRYYKYEYWGQGTQVTVSS | low polyreactivity
17 | QVQLVESGGGLVQAGGSLRLSCAASGSIFTDYTMGWSRQAPGKERELVAAISWIGDSTDYADSVKGRFTISRDNAKNTVYLQMNSLKPEDTAVYYCAKSRAGRYNDYDYWGQGTQVTVSS | low polyreactivity
18 | QVQLVESGGGLVQAGGSLRLSCAASGFIFDRYAMGWYRQAPGKERELVAAITGSGGSTYYGDSVKGRFTISRDNAKNTVYLQMNSLKPEDTAVYYCNTGGRSGSPGYDYWGQGTQVTVSS | high polyreactivity
19 | QVQLVESGGGLVQAGGSLRLSCAASGSTFDDYDMGWYRQAPGKEREFVATIDWSGGSTYYADSVKGRFTNSRDNAKNTVYLQMNSLKPEDTAVYYCTALRYVVYFDDDYWGQGTQVTVSS | high polyreactivity
20 | QVQLVESGGGLVQAGGSLRLSCAASGRTFGRYVMGWYIQAPGKERELVARISSAGGTNYADSVKGRFTISRDNAKNTVYLQMNSLKPEDTAVYYCNFTRYWRAHLGYYWGQGTQVTVSS | high polyreactivity
21 | QVQLVESGGGLVQAGGSLRLSCAASGFIFYQYAMGWYRQAPGKERELVAAISRSGGSTYYADSVKGRFTISRDNAKNTVYLQMNSLKPEDTAVYYCNAVYRSIRPRYDYWGQGTQVTVSS | high polyreactivity

Row | Sequence | polyreactivity (PSR sort gate)
22 | QVQLVESGGGLVQAGGSLRLSCAASGNTFTWYTIGWYRQAPGKERELVAVITSDGSKYYADSVKGRFTISRDNAKNTFYLQMNSLKPEVTAVYYCTVGGGTNYGYGYWYGFYYWGQGTQVTVYS | low polyreactivity
23 | QVQLVESGGGLVQAGGSLRLSCAASGFTFRAYAMGWYRQAPGKERELVATITRSGGSTFYADSVKGRFTISRDNAKNTVYLQMNSLKPEDTAVYYCAAVYRFAFRYAWYKYDYWGQGTQVTVSS | high polyreactivity
24 | QVQLVESGGGLVQAGGSLRLSCAASGSIFGENAMGWYRQAPGKERELVAAITSGGSTDYADSVKGRFTISRDNAKNTVYLQMNSLKPEDTAVYYCAASGRVGPGYWYDSWGQGTQVTVSS | low polyreactivity
25 | QVQLVESGGGLVQAGGSLRLSCAASGIIFYHYAMGWYRQAPGKEREFVAAITWDGGNTYYADSVKGRFTISRDNAKNTVYLQMNSLKPEDTAVYYCNTDRGPVKVSPLYESWGQGTQVTVSS | low polyreactivity
26 | QVQLVESGGGLVQAGGSLRLSCAASGRIFYYYAMGWYRPAPGKERELVAAINRDGGRTYYADSVKGRFTISRDNAKNTVYLQMNSLKPEDTAVYYCAASYGYVYTTSLDYWGQGTQVTVSS | low polyreactivity
27 | QVQLVESGGGLVQAGGSLRLSCAASGRIFYYNVMGWYRQAHGKERELVASISYSSTRTYYADSVKGRFTISRDNAKNTVYLQMNRLKQEDTAVYYCAVDTYAYRGVSYWSERTYYYWGQGTQVNVSS | low polyreactivity
28 | QVQRVESGGGLVQAGGTLRLSCAASGNTFDYYAMGWYRQAPGKERELVAAIRYRGGTTYYADSVKGRFTISRDNAKNTVYLQMNSLKPEDTAVYYCAARYVPYSRRYNYWGQGTQVTVSS | high polyreactivity
29 | QVQLVESGGGLVQAGGSLRLSCAASGITFPDYDMGWYRQAPGKERELVAAITYRSGSTYYADSVKGRFTISRDNAKNTVYLQMNSLKPEDTAVYYCNKYGQVPGYFSLDYWGQGTQVTVSS | high polyreactivity
30 | QVQLVESGGGLVQAGGSLRLSCAASGSTFGYYAMGWYRQAPGKERELVAVIRRGGSTNYADSVKGRFTISRDNAKNTVYLQMNSLKPEDTAVYYCNKYRYAGITAEFYYWGQGTQVTVSS | high polyreactivity
31 | QVQLVESGGGLVQAGGSLRLSCAASGRIFYLYAMGWYRQATGKERELVAAITWSGGSTTYADSVKGRFTISRDTAKNTVYLQMNSLNPEDTAVYYCNADGWIFPSFSPMDYWGQGTQVTVSS | low polyreactivity
32 | QVQIVETGGGLVQAGGSLRLSCAASGRIFFRNPMGWYRPAPRKEREFVAAINWSGGSTYYADSVKGRFTISRDNAKNTVYLQMNSLKPEDTAVYYCAARGSRGGRRGATASMDYWGQGTQVTVSS | high polyreactivity
33 | QVQLVESGGGLVQAGGSLRLSCAASGSTFFSNTMGWYRQAPGIERELVAAITSRGGRTYYADSVKGRFTISRDNAKNSVYLQMNSLKPEDTAVYYCAARFVLHGVYLKFYWGQGTQLTVSS | high polyreactivity
34 | QVQLQESGGGLVQSGGSLRLSCAASGFIFARNYMGWYRQAPGKERELVAGIGVGASTNYADSVKGRFTISRDNAKNTVYLQMNSLKPEDTAVYYCNARTGTTWQGYEYDYWGQGTQVTVSS | low polyreactivity
35 | QVQLVESGGGLVQAGGSLRLSCAASGSTFYNYAMGWYRQAPGKERELVASITWNGGSTYYADSVKGRFTISRDNAKNTVYLQMNSLKPEDTAVYYCAAEWTWTYPYDYWGQGTQVTVSS | low polyreactivity
36 | QVQLVESGGGLVQAGGSLRLSCAASGFTFDTYDMGWYRQAPGKERELVAAIDWSGVSTYYADSVKGRFTISRDNAKNTVYLQMNSLKPEDTAVYYCAADLWQYDIASWDYTYDYWGQGTQVTVSS | low polyreactivity
37 | QVQLVETGGGLVQAGGSLRLSCAASGRIFQWYAMGWYRQAPGKERELVAAINNGGSTNYADSVKGRFTISRDNAKNTVYLQMNSLKPEDTAVYYCAAELTFVAQGWFVTYDYWGQGTQVTVSS | high polyreactivity
38 | QVQLVESGGGLVQAGGSLRLICAASGRTFSYYAIAWYRPAPGKERELVAAINWSGTRTYYADSVTGRCTISRDNAKNTVYLQMNSLNPEDTAVYYCARRWVGYDYWGQGTQVTVSS | high polyreactivity
39 | QVQLVESGVGLVQAGGSLRLSCAASGRTFISNVMGWYRQAPGKERELVAAISGSSGSTRYADSVKGRFTISRDNAKNTVYLQMISLKPEDTAVYYCAARAPWPKWGYYYWGQGTQVTVSS | high polyreactivity
40 | QVQLVESGGGLVQAGGTLRLSCAASGSIFRYYTMGWYRQAPGKERELVAAITWDGDSTYYADSVKGRFTISLDNAKNTVYLQMNSLKPEDTAVYYCNADDYGPGFDYWGQGTQVTVSS | low polyreactivity
41 | QDQLVESGVGLVQAGGSLRLSCAASGRILGRNAMGWYRQAPGKERELVAAISSGVSTNYADSVKGRFTISRANAKNTVYLQMNSLKPEDTAVYYWGQGTQVTVSS | low polyreactivity
